We go through 17 sequences from the DeepSol protein solubility set.

The nature of this data set: soluble on expression in E. coli; label from the status in PepcDB or PDB records.
For “MGKEALLNLYRIEYRPKDTTFTVFKPTHEIQKEKLNKVRWRVFLQTGLPTFRREDEFWCAGKVEKDTLYLTLSNGEIVELKRVGEEEFRGFQNERECQELFRDFLTKTKVKDKFISDFYKKFRDKITVQGKNRKIALIPEVNEKVLKSEEGYFLLHLDLKFRIQPFETLQTLLERNDFNPKRIRVKPIGIDFVGRVQDVFKAKEKGEEFFRLCMERSTHKSSKKAWEELLKNRELREKAFLVVLEKGYTYPATILKPVLTYENLEDEERNEVADIVRMEPGKRLNLIRYILRRYVKALRDYGWYISPEEERAKGKLNFKDTVLDAKGKNTKVITNLRKFLELCRPFVKKDVLSVEIISVSVYKKLEWRKEEFLKELINFLKNKGIKLKIKGKSLILAQTREEAKEKLIPVINKIKDVDLVIVFLEEYPKVDPYKSFLLYDFVKRELLKKMIPSQVILNRTLKNENLKFVLLNVAEQVLAKTGNIPYKLKEIEGKVDAFVGIDISRITRDGKTVNAVAFTKIFNSKGELVRYYLTSYPAFGEKLTEKAIGDVFSLLEKLGFKKGSKIVVHRDGRLYRDEVAAFKKYGELYGYSLELLEIIKRNNPRFFSNEKFIKGYFYKLSEDSVILATYNQVYEGTHQPIKVRKVYGELPVEVLCSQILSLTLMNYSSFQPIKLPATVHYSDKITKLMLRGIEPIKKEGDIMYWL”, the “soluble on expression in E. coli” value is on record as “soluble”.

Take “MGKGVAFFSGGKDGLYALYLAEEMGIEVPYLLVLKTSIGLSPHWENLDALKTLAKVMEREILTFDMRRGSKALAEFISSLDVDYLIAGDVYLEDHILWVKSLAEEANVKPLEPLWGRNTRKLAEEMLREGFNWAIIAVDKRKLGKEWLGYTFRSIEDLENFLRANPNVDPLGEVGEFHTVVLNSPLFALNFELKVESIEEDERYWWLRFELREVEKWNLNS”: the “soluble on expression in E. coli” value is “soluble”.

For “MGKKPISILLMGTDTGALGRSYKGRTDSMMVVTINPKTKKTTITSIPRDLGVTIPGYESKSPSKINAAYAFGQAGTAIKTVQQVFNVPIDFYVLVNMGGMEKVVDEAGGVDITPTLSFTYDGYTFTKGVKTHMNGKKALAYSRMRYDDPQNDYGRQTRQRAVLTAIISKSSSVSSLLNKDFIDSISNETKTDFTFNDLVDLAKNYRSSTGSIEETHAQGDGQMVNGQSMEIVSNTELQRVTNFIRNGLSLEHEKTGTAALSASSANTSDSSVEAANINAGNLEHHHHHH”, the “soluble on expression in E. coli” value is “soluble”.

Turning to “MGKNLSLRQDDAQHALSANTSSAYNSVYDFLRYHDRGDGLTVNGKTSYSIDQAAAQITRENVSWNGTNVFGKSANLTFKFLQSVSSIPSGDTGFVKFNAEQIEQAKLSLQSWSDVANLTFTEVTGNKSANITFGNYTRDASGNLDYGTQAYAYYPGNYQGAGSSWYNYNQSNIRNPGSEEYGRQTFTHEIGHALGLAHPGEYNAGEGDPSYNDAVYAEDSYQFSIMSFWGENETGADYNGHYGGAPMIDDIAAIQRLYGANMTTRTGDSVYGFNSNTDRDFYTATDSSKALIFSVWDAGGTDTFDFSGYSNNQRINLNEGSFSDVGGLKGNVSIAHGVTIENAIGGSGNDILVGNSADNILQGGAGNDVLYGGAGADTLYGGAGRDTFVYGSGQDSTVAAYDWIADFQKGIDKIDLSAFRNEGQLSFVQDQFTGKGQEVMLQWDAANSITNLWLHEAGHSSVDFLVRIVGQAAQSDIIV”, the “soluble on expression in E. coli” value is “soluble”.

Consider “MGKRIAFWFEFASTYSYLSAMRIERAAADLGVTIAWEPFLLGPIFAAQGWTSSPFNLFPAKGRYMWRDMERLCARQGLPLTRPDPFPQNGLPAARLAMVAREMGHIAPFVRAVYAAQFGRGLVISDPQVLAECWAEAGLPPEAMEQAKSPEIKAALFAQGERAAALDLFGAPSFVVGEEVFWGDDRLDQALALAAQS”, for which the “soluble on expression in E. coli” value is “soluble”.

For the sequence “MGKSLTEIAEELKGNDKKVQLIYAFNGTGKTRLSREFKNLIAPTSSEEPDGEPTRRKFLYYNAFTEDLFFWDNDLLANEAPRLKIQKNSFTDWLLRDNGLDGAVIKNFQYYTDDKLTPDFNDDFSEIAFYFARGNDEQIENIKISKGEESNFIWSIFYVLIRQVIAELNIPEDSEEGRSTDQFDDLEYIFIDDPVSSLDENHLIQQAVDLADLIKLSKPRLKFIITTHNVLFYNVLYNELKKLEKEKKSYLLLKNEDGSFDILEKQGDSNKSFSYHLHLKGVIEKAIENQQVERFHFMLLRNLYEKTANFLGYKQRSDILPEDSRRNYFQRIINFTSHSTLSNEAFAEPTPQEQETVKLLLQHLLDNYNFFQDDEQRDKP”, the “soluble on expression in E. coli” value is “not soluble”.

For “MGLELRAIQSPIFSEPFDFTFHAQAFTLLVGSSGSGKSSLFQMIAQVSSLPYSGQVLIDGSEVSQLSIVERVQTVGILLQNPNHQFTMESLFEELVFTMENIGYHLQEIDSKIAEVVQQCRCKDILHRLIHHLSGGEKQKAALAVLFAMNPRVYLLDEPFASIDRKSRIEILEILKELVYDGKTVILCDHDLSDYKAYIDHMVELRDGKLREVFQIPSYEMTQVASKEVASSPELFHMNRVTGELGNRPLFSIADFTFYQGISCILGDNGVGKSTLFRSILQFQKYKGSITWKGSVLKKKKSLYRDLTGVVQEAEKQFIRVSLREELQLDGPDSERNQRIFQALRYFDLEQAVDKSPYQLSGGQQKILQLLTILTSKASVILLDEPFAGLDDRACHYFCKWIVEERNQGRSFLLISHRLDPLISVVDYWIEMTSQGLRHVKEVTITKPLTSQSSNTQGEVR”, the “soluble on expression in E. coli” value is “not soluble”.

Consider “MGLKDQAVTWRRYFHQFPELSDKEFKTTQKIKDILTEHHIRILDLPLATGLVAEVGQGLSCIAVRADIDALPIQELVEQDFKSENEGVMHACGHDIHMASILATAVKLKEIEGTLTGRVKFIFQSAEELGHGAFKIIETHALKDVQAVLGFHNDPSRSVGTFAIKTGAITSAVDRFEFHIKGVGGHAAKPEQCNDPVIVLAQLINSIQSIVSRNLSAFDEAVVTIGQISCGNTWNVIADHAYVQGTVRSFDPVVRKLVETRLQDIADGLAQAYNMKINLNYTHLPGAVMNDEALTHKAIAVAQHVGYKVEMMEQPLTIGEDFSGYSQHFPSVFALIGSHSEYDLHHPQYKPDERILEKVPEYFVEFVKRLLHE”, for which the “soluble on expression in E. coli” value is on record as “not soluble”.

“MGLLIDGVWHDQWYDTKSTGGSFKRQDAKFRNWITHDGSAGPSGTGGFTPDSGRYHLYISHACPWAHRTMIFRTLKGLEDHITISAVHPDMLGEGWTFEPDDNGATGDTLYNSAFARDIYTRADPRFTGRVTVPILWDKQRETIVSNESSEIIRMFNAAFNGLTGNSDDYWPEPLRDAIAPVNERIYDTFNNGVYKAGFATTQQAYDAAIVPLFDTLDWLEERLSHNRYLMGDQLTEADWRLFTTLVRFDPVYHLHFKCNRKRIVDYPNLWGYTRELYQTPGVADTVNFDHIVRHYHYSHETINPNRIIPINPVLDFHRPHGRGLEHHHHHH”: the “soluble on expression in E. coli” value is reported as “soluble”.

Take “MGLSNRAIIIDGKNHLLGRLASIVAKKLLQGDKVVVLRAEEIVISGNFHRSKLKYMSFLRKRCNINPARGAFHYRAPGKIFWRTVRGMLPHKTNRGNEALKNLRAYEGVPAKYQKTKSLHAPSASRFRLQPRRKFCVVGRLSHEVGWQFQDVVAKLEAKRKVKGAAYFEQKKKMDKLAVQAKKNAAPKIAQYQKIIEALGYN”: the “soluble on expression in E. coli” value was “not soluble”.

As to “MGNASMTKTDIATRVHNHTWKLDPIVRSLIDTDFYKLLMLQMIWKLYPEVDATFSLINRTKTVRLAEEIDEMELREQLDHARTLRLSKKENIWLAGNTFYGRSQIFEPEFLSWLSSYQLPEYELFKRDGQYELNFHGRWMDTTLWEIPALSIINELRSRSAMRSLGYFTLDVLYARAKAKMWEKVERLRELPGLRISDFGTRRRHSFLWQRWCVEALKEGIGPAFTGTSNVLLAMDSDLEAVGTNAHELPMVVAALAQTNEELAAAPYQVLKDWNRLYGGNLLIVLPDAFGTAAFLRNAPEWVADWTGFRPDSAPPIEGGEKIIEWWRKMGRDPRTKMLIFSDGLDVDAIVDTYRHFEGRVRMSFGWGTNLTNDFAGCAPKTIASLKPISIVCKVSDANGRPAVKLSDNPQKATGDPAEVERYLKFFGEEDHKEQKVLVLEHHHHHH”, the “soluble on expression in E. coli” value is listed as “not soluble”.

“MGNKQTIFTEEQLDNYQDCTFFNKKDILKLHSRFYELAPNLVPMDYRKSPIVHVPMSLIIQMPELRENPFKERIVAAFSEDGEGNLTFNDFVDMFSVLCESAPRELKANYAFKIYDFNTDNFICKEDLELTLARLTKSELDEEEVVLVCDKVIEEADLDGDGKLGFADFEDMIAKAPDFLSTFHIRI”: the “soluble on expression in E. coli” value is listed as “not soluble”.

With “MGNNSSAQSSTPSLPIDSTFNLPSPLPSWPSGEGFAKGRIDLGGLEVSQVDTFNKVWTVYEGGQDNLGATFFEPSSVPEGFSILGFYAQPNNRKLFGWTLVGKDLSGDSLRPPVDYLLLWSGKSTKVENNKVETGYFWQPVPPDGYNAVGLIVTTSDEKPPLDKIRCVRSDLTDQSEPDALIWETNGFSVSSSKPVNRGTQASGVSVGTFFSNSPNPALPCLKNNNFDFSCMPSKPQIDALFQTYAPWIYFHKDEKYLPSSVNWFFSNGALLYKKGDESNPVPVEPNGLNLPQGEFNDGLYWLDLPVASDARKRVQCGDLQSMEVYLHIKPVFGGTFTDIAVWMFYPFNGPSRAKLKAASIPLGRIGEHIGDWEHFTLRISNFSGKLHRMYLSQHSGGSWADASEIEFQGGGNKPVAYASLNGHAMYSKPGLVLQGKDNVGIRNDTGKSEKVIDTAVRFRVVAAEYMRGELEEPAWLNYMRHWGPKIDYGHENEIRGVEKIMVGESLKTTFRSAIKGLPNEVFGEEGPTGPKLKRNWLGDEV”, the “soluble on expression in E. coli” value was “not soluble”.

In the case of “MGNSLHQIKCCTSFIHCQNAAVDAPSIAKTLADYLYPAFFHQDLPAPLKISVTGCPNQCGGGVEADIGISGYFATVPRVDDAGLMAANIDFGHLISGCPVGAIRPRQVEGGTTVVINAERCIRCTSCIQVAPEGIKPGPERFVAIAVGGHGGNNRRGPEMAAVVFSRVPARPLDYAAICERVQRIIACWRDRGKRGERLAGFLERLEHHHHHH”, the “soluble on expression in E. coli” value is recorded as “not soluble”.

Take “MGNTAITRVQMEATKSVPVDHAKYMSGSGAPPPECPMHQKHGDAKSASAVPPHPKMQAASECPVQHDNSDVNPLNMMPPANQQPAADQPFPLPTDRQTSTIPKVTEDGSVQFWQYPSQQMFWNAMLRKGWRWKTEDVSQKDMGDIIRIHNANNEQAWQEVLKWEALHAKECGNPRLKSFGGKAKDFSPRARFRSWLGYELPFDRHDWIVDRCGKDVRYVIDYYDGGLVDKDYRFALLDVRPAMDSVDNVWDRMRVAYMRWKYELFEKFGSADGGKVTAGSDLEHHHHHH”: the “soluble on expression in E. coli” value is on record as “not soluble”.

Take “MGQRKYGGPPPGWDSTPPERGCEIFIGKLPRDLFEDELIPLCEKIGKIYEMRLMMDFNGNNRGYAFVTFSNKQEAKNAIKQLNNYEIRTGRLLGVCASVDNCRLFVGGIPKTKKREEILSEMKKVTEGVVDVIVYPSAADKTKNRGFAFVEYESHRAAAMARRRLLPGRIQLWGHPIAVDWAEPEVEVDEDTMSSVKILYVRNLMLSTSEEMIEKEFNSIKPGAVERVKKIRDYAFVHFSNREDAVEAMKALNGKVLDGSPIEVTLAKPVDKDSYVRYTRGTGGRNTMLQGEYTYPLSHVYDTTTTYLGAPVFYTPQAYAAIPSLHFPATKGHLSNRALIRTPSVRGNTS”: the “soluble on expression in E. coli” value is recorded as “soluble”.

On to “MGQRYKRMSSTDTNEYMSDNLAKAISNPLFPALDSMLRAGRHISTEDLDNHALLSDFELELSSFYQRYNTELVKAPEGFFYLRPRSTSLIGRSVLSELDMLVGKVLCFLYLSPERLAHEGIFTNQELYDELLALADEKKLMKLVTNRATGSDLDKEKLFEKVRTSLRRLRRLGMIINIGETGKFSISEAVFRFGADVRVGDDIREAQLRLIRDGEAVVHTKEPSQGSLLSEEDQEEQAQEEMTEEGEALEHHHHHH”, for which the “soluble on expression in E. coli” value is on record as “soluble”.
